# B1: Undecaprenyl pyrophosphate phosphatase (UppP) from Escherichia coli (enzyme, Escherichia coli K-12, UniProt P60932 1-273, looked up)
# chain: MSDMHSLLIAAILGVVEGLTEFLPVSSTGHMIIVGHLLGFEGDTAKTFEVVIQLGSILAVVVMFWRRLFGLIGIHFGRPLQHEGESKGRLTLIHILLGMIPAVVLGLLFHDTIKSLFNPINVMYALVVGGLLLIAAECLKPKEPRAPGLDDMTYRQAFMIGCFQCLALWPGFSRSGATISGGMLMGVSRYAASEFSFLLAVPMMMGATALDLYKSWGFLTSGDIPMFAVGFITAFVVALIAIKTFLQLIKRISFIPFAIYRFIVAAAVYVVFF
# notes: Undecaprenyl pyrophosphate phosphatase (UppP, BacA), Escherichia coli K-12 (ATCC 10798), full length, residues 1-273; Integral membrane protein, in DDM detergent (SEC, cross-linking) or monoolein lipid cubic/sponge phase (crystals); also called EcUppP; BacA; source: E. coli C41, solubilized from membranes in DDM, purified (Ni-NTA, thrombin cleavage, gel filtration); not shown: His6, N-terminal, …
# Target: the molecule itself
# Assay: cross-linking; purified UppP, room temperature 30 min, 50-fold molar excess DSS or EGS, quenched with 50 mM Tris, 12% SDS-PAGE
protein,measurement,value
B1,stoichiometry N,2
